The subject of assay [1] is EPSPS and C-P Lyase deficient E. coli. In words: Growth of transformed E. coli on solid culture media containing glyphosate (FIG. 4). Format: cell-based. The following applies: solid culture medium. The procedure:
Besides, the glyphosate-resistant CP4-EPSPS gene mostly widely used currently in genetically modified crops in agriculture was further used in the present example as positive control, and E. coli respectively transformed by OsE gene (negative control group), OsEM gene (experiment group) and CP4-EPSPS gene (positive control group) were inoculated onto solid culture media respectively containing glyphosate of concentration of 0 mM, 1 mM, 50 mM, 100 mM, to observe growth states of bacterial colony in each group.

Assay [2] relates to EDCE (E. coli DH5a with EPSPS gene and C-P Lyase gene being knocked out). In words: Glyphosate resistance of transformed E. coli in liquid screening culture media (growth saturation index). Further details: key to Growth Saturation Index: saturation index=0, no growth; saturation index=1, little growth; saturation index=2, half-saturated growth; saturation index=3, flourishing growth, but still having room to grow; saturation index=4, rapid growth, the bacteria having reached a highest (saturated) concentration in the culture media or the growth having reached the limit. It is filed as cell-based. The source says: 1.6 A double knockout E. coli was transformed (E. Coli DH5a with EPSPS gene and C-P Lyase gene being knocked out, named as EDCE, wherein for a preparation method thereof, reference can be made to a Chinese invention patent with the filing number CN2016103256926, entitled “Method for Screening Glyphosate-resistant Gene, EPSPS Mutant Gene, Defect Strain and Application Thereof”).
In the above, the screening culture media were culture media obtained by adding antibiotic, Spec (Spectinomycin), Gen (Gentamycin), Amp (Ampicillin) of certain concentrations and glyphosate of different concentrations, with M9 as a basic medium. Basic components of the M9 culture medium were as follows: Na2HPO4 13˜14 g/L, KH2PO4 5.7˜6.3 g/L, NaCl 0.9˜1.1 g/L, NH4Cl 1.8˜2.2 g/L, glucose 37˜43 g/L, MgSO4˜7H2O 48˜52 g/L, and CaCl2) 21˜23 g/L.
In the present example, EDCE transformed by the wild-type rice EPSPS gene (named as OsE gene, SEQ ID NO. 3) was taken as a control group, and the monoclonal resistant bacterium containing the OsEM gene (SEQ ID NO. 2) obtained in step 3.1 of Example 1 was taken as an experiment group, to detect the glyphosate resistance of the OsEM gene in bacteria.
The control group and the experiment group were respectively inoculated into culture media (screening culture media) containing glyphosate concentrations of 0 mM, 5 mM, 10 mM, 20 mM, 50 mM, 75 mM, and 100 mM, to observe growth states of bacterial colony in each group, denoted by growth saturation index (saturation index=0, no growth; saturation index=1, little growth; saturation index=2, half-saturated growth; saturation index=3, flourishing growth, but still having room to grow; saturation index=4, rapid growth, the bacteria having reached a highest (saturated) concentration in the culture media or the growth having reached the limit).

Another assay relates to soybean plants. The assay is described as follows: Glyphosate spray test on soybean plants transformed with OsEM gene. Format: in vivo. The text has this:
In the present example, wild-type soybean plants were taken as controls, the positive soybean plants transformed with OsEM gene obtained in Example 4 were taken as experiment group, to verify glyphosate resistance of OsEM gene in plants. An experiment method is as follows:
1 The OsEM transformed positive soybean plants 10-20 cm tall and 3 wild-type soybean plants with a similar size were numbered and then randomly arranged in an experiment area (preventing leaves from overlapping).
2 The area with the plants was measured, and glyphosate was sprayed at a dosage of 1060 g/hectare (0.106 g/m^2).
3 Commercially available Roundup® 41% ammonium glyphosate was used. Amount was calculated according to the experiment area and dosage of 0.106 g/m^2, then diluted 20 times with water, and uniformly sprayed on the plants in the experiment area.
4 After leaf surfaces were dry, the plants in the experiment group and the control group were moved into a greenhouse.
5 Growth states of the plants were evaluated and recorded.
Afterwards, plants grew well were transplanted to larger pots to grow, and the glyphosate (having a concentration of […]) was sprayed for a second time on a 21st day. After 2 weeks, the growth states of the plants in each group were captured and recorded.

The mark [3] stands for this setting: 7th day after first glyphosate spray, 1060 g/hectare (0.106 g/m^2).

One molecule from patent US10920201B2, “Rice EPSPS mutant, encoding gene and use thereof” (GEVOTO LLC, priority 2016, dated 2021) can be followed below.

B1: OsEM: Rice EPSPS mutant gene (SEQ ID NO. 2) encoding 5-enolpyruvylshikimate-3-phosphate synthase mutant (SEQ ID NO. 1), 8 amino acid mutations (protein)
chain: MASNAAAAAAKAEEIVLQPIREISGAVQLPGSKSLSNRILLLSALSEGTTVVDNLLNSEDVHYMLEALKGLGLSVEADKVAKRAVVVGCGGKFPVEKDAKEEVQLFLGNAATAMRSLTAAVTAAGGNATYVLDGVPRMRERPIGDLVVGLKRLGADVDCFLGTECPPVRVKGIGGLPGGKVKLSGSISSQYLSALLMAAPLALGDVEIEIIDRLISIPYVEMTLRLMERFGVKAEHSDSWDRFYIKGGQQYESPGNAYVEGDASSASYFLAGAAITGGTVTVQGCGTTSLQGDVKFAEVLEMMGAKVTWTDTSVTVTGPPREPYGKKHLKAVDVNMNKMPDAAMTLAVVALFADGPTAIRDVASWRVKETERMVAIRTELTKLGASVEEGPDYCIITPPEKLNITAIDTYDDHRMAMAFSLAACADVPVTIRDPGCTRKTFPNYFDVLSTFVRN
As to B1, the “growth state of bacterial colony” value in assay [1] (0 mM glyphosate), in assay [1] (1 mM glyphosate), in assay [1] (50 mM glyphosate) and in assay [1] (100 mM glyphosate) was “could grow normally” throughout. The “Growth Saturation Index” value in assay [2] (0 mM glyphosate in culture medium), in assay [2] (5 mM glyphosate in culture medium), in assay [2] (10 mM glyphosate in culture medium), in assay [2] (20 mM glyphosate in culture medium), in assay [2] (50 mM glyphosate in culture medium) and in assay [2] (75 mM glyphosate in culture medium) was 4 each time. Moreover, the “Growth Saturation Index” value in assay [2] (100 mM glyphosate in culture medium) was 4. Also, the figures for the “glyphosate concentration to which resistance is endowed” value (in assay [2] (E. coli transformed by the gene); in the assay with soybean plants (soybean plants transformed by the gene)) were 100 mM and 1.06 g/m^2, respectively. In addition, in the assay with soybean plants (1.06 g/m^2 glyphosate sprayed on 21st day, recorded after 2 weeks), the “growth state of plants after second glyphosate spray (FIG. 7)” value is recorded as “could grow continuously”. In the assay with soybean plants (setting [3]), the “number of plants with Growth State + (low glyphosate resistance)” value is reported as 3. Besides, the “number of plants with Growth State ++ (medium glyphosate resistance)” value in the assay on soybean plants (setting [3]) came to 1. In addition, in the assay with soybean plants (setting [3]), the “number of plants with Growth State +++ (high glyphosate resistance)” value is 4. Besides, the “number of plants with Growth State − (no glyphosate resistance)” value in the assay on soybean plants (setting [3]) is on record as 2.
